# Measured values: patent US20050142634
# Test system: modulator of non-genomic activity of nuclear receptors (MNAR)
substance,measurement,value
cSrc,"cSrc enzymatic activity (acid denatured enolase as a substrate, [32P]-γATP, SDS-PAGE autoradiography)",MNAR itself strongly stimulates cSrc enzymatic activity
